{
  "source": "paper PMC4938799",
  "about": "“LD Motif Recognition by Talin: Structure of the Talin-DLC1 Complex” (Structure(London, England:1993), 2016)",
  "molecules": {"B1": {"name": "GST-R8: GST-tagged talin R8, amino acids 1,453–1,580 (protein)", "chain": "NSQAGQQGLVEPTQFARANQAIQMACQSLGEPGCTQAQVLSAATIVAKHTSALCNSCRLASARTANPTAKRQFVQSAKEVANSTANLVKTIKALDGDFTEENRAQCRAATAPLLEAVDNLSAFASNPE", "modifications": "left off: GST, end not stated, kept"}},
  "key": {"endogenous RIAM": {"system": "endogenous RIAM", "test": "GST pull-down of endogenous RIAM in A549 cells", "type": "cell-based, human", "conditions": "A549 cell extracts, anti-RIAM immunoblot", "excerpt": "However, as talin R8 interacts with RIAM ([Goult et al., 2013b]) and paxillin (shown here) in addition to DLC1, we used several approaches to evaluate whether binding of talin R8 to endogenous RIAM or paxillin might have contributed to the observed results. For RIAM, the level of expression in the cell lines used here varied from very low to undetectable. To detect RIAM protein in any of the cell extracts, we had to use an anti-RIAM immunoprecipitation step followed by anti-RIAM immunoblotting. Using these conditions, endogenous RIAM was detected in A549 and H358 cells, but not in 293T cells (Figure S5A).\nFigure S5, related to figure 6. […]\nform a detectable complex with GST-talin R8.\n(A) The expression of endogenous RIAM in cell lines. Cell extracts were subjected to immunoprecipitation followed by immunoblotting with anti-RIAM antibody.\n(B) A complex between GST-talin R8 and endogenous RIAM is undetectable in A549 cells.\nA549 cells were co-transfected with GFP-DLC1 and the GST constructs indicated. Cell extracts were subject to a glutathione bead pull down assay followed by immunoblotting with anti-GST and anti-RIAM antibodies on the same membrane (left). No complex between GST-talin R8 and RIAM could be detected. Under the same conditions, wild-type GST-R8 pulled-down the co-transfected GFP-DLC1; the immunoblot with anti-GST and anti-DLC1 on the same membrane is shown (right). […]"}, "endogenous paxillin": {"system": "endogenous paxillin", "test": "GST pull-down of endogenous paxillin in A549 and H358 cells", "type": "cell-based, human", "conditions": "anti-paxillin immunoblot", "excerpt": "To investigate whether the biological effects of GST-R8 might be partly mediated via paxillin, we first confirmed that endogenous paxillin is expressed in cell lines A549, H358, and 293T (Figure S6A). […] As a positive control, HEK293 cells were co-transfected with a paxillin-DDK construct (OriGene) and GST-R8 (wild-type, R1544E and 2E mutants), followed by a GST pull-down assay.\nFigure S6, related to figure 5. Binding of GST-talin R8 to endogenous paxillin is undetectable in A549 and H358 cells.\n(A) The expression of endogenous paxillin in cell lines. Cell extracts were assayed by immunoblotting with anti-paxillin antibody.\n(B) A complex of GST-talin R8 with endogenous paxillin is undetectable in A549 (top) and H358 (bottom) cells. Cells were transfected with the GST constructs indicated, and cell extracts subjected to a glutathione bead pull down assay followed by immunoblotting with anti-GST and anti-paxillin antibodies on the same membrane.\n(C) Wild-type GST-talin R8 forms a complex with transfected paxillin in 293T cells. […]\nG418 colony growth, soft agar growth and cell migration assays - As described previously (Qian et al., 2009), transfected A549 cells were counted, and equal numbers of cells were seeded in […]"}},
  "data": [
    {"molecule": "B1", "values": [
      {"measurement": "complex with endogenous RIAM", "setting": "endogenous RIAM", "value": "did not detect a GST-R8 complex"},
      {"measurement": "complex with endogenous RIAM", "setting": "endogenous RIAM; listed as GST-talin R8", "value": "undetectable"},
      {"measurement": "complex with endogenous paxillin", "setting": "endogenous paxillin", "value": "insufficient to detect binding"},
      {"measurement": "complex with endogenous paxillin", "setting": "endogenous paxillin; listed as GST-talin R8", "value": "undetectable"}
    ]}
  ]
}
